T1: IFN-αF (human, UniProt P01568 24-189)
T1 construct: also called IFN-α21; alpha F
T1 chain: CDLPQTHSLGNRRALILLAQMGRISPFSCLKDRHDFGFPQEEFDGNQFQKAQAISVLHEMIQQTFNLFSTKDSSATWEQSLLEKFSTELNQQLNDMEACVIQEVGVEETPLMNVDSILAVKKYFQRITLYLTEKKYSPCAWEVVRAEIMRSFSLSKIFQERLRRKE


Assays:
Assay in all cases: ProteOn, one antigen concentration
[1] = target: T2, human IFN-ω (human, UniProt P05000 24-195)
T2 construct: also called interferon omega

[2] = target: T3, IFN-αC (human, UniProt P01566 24-189)
T3 construct: also called IFN-α10; alpha C

[3] = target: T1, IFN-αF
[4] = target: T4, IFN-αJ1 (human, UniProt P01567 24-189)
T4 construct: also called IFN-α7; alpha J1

[5] = target: T5, IFN-α4a (human, UniProt P05014 24-189)
T5 construct: also called IFN-αM1

[6] = target: T6, IFN-αG (human, UniProt P01569 24-189)
T6 construct: also called IFN-α5; alpha G

[7] = target: T7, IFN-αWA (human, UniProt P05015 24-189)
T7 construct: also called IFN-α16; alpha WA

Row | Kd [1] | Kd [2] | Kd [3] | Kd [4] | Kd [5] | Kd [6] | Kd [7] | Binder
1 | 0.02 nM | 0.057 nM | 0.054 nM | 0.055 nM | 0.161 nM | 0.098 nM | 0.066 nM | IFWM3350 (antibody, V domains shown, VH IFWH624, VL IFWL1009; converted mAb; also called IFWB3085) VH: EVQLVQSGAEVKKPGESLKISCKGSGYSFTSYWIGWVRQMPGKGLEWMGIIDPSDSDTAYSPSFQGQVTISADKSISTAYLQWSSLKASDTAMYYCARHPGLNWAPDFDYWGQGTLVTVSS VL: DIQMTQSPSSLSASVGDRVTITCRASQSIDDFLNWYQQKPGKAPKLLIYFASSLQSGVPSRFSGSGSGTDFTLTISSLQPEDFATYYCQQSHTLPLTFGQGTKVEIK
2 | 0.059 nM | 0.05 nM | 0.051 nM | 0.166 nM | 0.258 nM | 0.061 nM | 0.173 nM | IFWM3329 (antibody, V domains shown, VH IFWH591, VL IFWL1067; converted mAb; also called IFWB3064) VH: EVQLVQSGAEVKKPGESLKISCKGSGYSFTSYWIGWVRQMPGKGLEWMGIIDPSDSDTRYSPSFQGQVTISADKSISTAYLQWSSLKASDTAMYYCARHPGLNWAPDFDYWGQGTLVTVSS VL: DIQMTQSPSSLSASVGDRVTITCRASQSIRNNNLNWYQQKPGKAPKLLIHWASSLQSGVPSRFSGSGSGTDFTLTISSLQPEDFATYYCQQGYDTPFTFGQGTKVEIK
3 | 0.03 nM | 0.101 nM | 0.135 nM | 0.388 nM | 0.622 nM | 0.066 nM | 0.098 nM | IFWM3361 (antibody, V domains shown, VH IFWH624, VL IFWL1051; converted mAb; also called IFWB3096) VH: EVQLVQSGAEVKKPGESLKISCKGSGYSFTSYWIGWVRQMPGKGLEWMGIIDPSDSDTAYSPSFQGQVTISADKSISTAYLQWSSLKASDTAMYYCARHPGLNWAPDFDYWGQGTLVTVSS VL: DIQMTQSPSSLSASVGDRVTITCRASQSIADFLNWYQQKPGKAPKLLIYFASSLQSGVPSRFSGSGSGTDFTLTISSLQPEDFATYYCQQSHSFPLTFGQGTKVEIK
4 | 0.025 nM | 0.056 nM | 0.049 nM | 0.174 nM | 0.233 nM | 0.043 nM | 0.061 nM | IFWM3360 (antibody, V domains shown, VH IFWH624, VL IFWL1048; converted mAb; also called IFWB3095) VH: EVQLVQSGAEVKKPGESLKISCKGSGYSFTSYWIGWVRQMPGKGLEWMGIIDPSDSDTAYSPSFQGQVTISADKSISTAYLQWSSLKASDTAMYYCARHPGLNWAPDFDYWGQGTLVTVSS VL: DIQMTQSPSSLSASVGDRVTITCRASQSIDGALNWYQQKPGKAPKLLIYFASSLQSGVPSRFSGSGSGTDFTLTISSLQPEDFATYYCQQAYDFPLTFGQGTKVEIK
5 | 0.018 nM | 0.054 nM | 0.047 nM | 0.223 nM | 0.319 nM | 0.048 nM | 0.123 nM | IFWM3358 (antibody, V domains shown, VH IFWH624, VL IFWL1041; converted mAb; also called IFWB3093) VH: EVQLVQSGAEVKKPGESLKISCKGSGYSFTSYWIGWVRQMPGKGLEWMGIIDPSDSDTAYSPSFQGQVTISADKSISTAYLQWSSLKASDTAMYYCARHPGLNWAPDFDYWGQGTLVTVSS VL: DIQMTQSPSSLSASVGDRVTITCRASQSITGFLNWYQQKPGKAPKLLIYAASSLQSGVPSRFSGSGSGTDFTLTISSLQPEDFATYYCQQSHDFPLTFGQGTKVEIK
6 | 0.026 nM | 0.055 nM | 0.052 nM | 0.079 nM | 0.122 nM | 0.06 nM | 0.041 nM | IFWM3355 (antibody, V domains shown, VH IFWH624, VL IFWL1022; converted mAb; also called IFWB3090) VH: EVQLVQSGAEVKKPGESLKISCKGSGYSFTSYWIGWVRQMPGKGLEWMGIIDPSDSDTAYSPSFQGQVTISADKSISTAYLQWSSLKASDTAMYYCARHPGLNWAPDFDYWGQGTLVTVSS VL: DIQMTQSPSSLSASVGDRVTITCRASQSINEFLNWYQQKPGKAPKLLIYFASSLQSGVPSRFSGSGSGTDFTLTISSLQPEDFATYYCQQSYSTPLTFGQGTKVEIK
7 | 0.039 nM | 0.034 nM | 0.035 nM | 0.113 nM | 0.164 nM | 0.035 nM | 0.106 nM | IFWM3327 (antibody, V domains shown, VH IFWH591, VL IFWL1063; converted mAb; also called IFWB3062) VH: EVQLVQSGAEVKKPGESLKISCKGSGYSFTSYWIGWVRQMPGKGLEWMGIIDPSDSDTRYSPSFQGQVTISADKSISTAYLQWSSLKASDTAMYYCARHPGLNWAPDFDYWGQGTLVTVSS VL: DIQMTQSPSSLSASVGDRVTITCRASQSIANNNLNWYQQKPGKAPKLLIHWASSLQSGVPSRFSGSGSGTDFTLTISSLQPEDFATYYCQQGYDTPFTFGQGTKVEIK
8 | 0.021 nM | 0.041 nM | 0.053 nM | 0.136 nM | 0.147 nM | 0.04 nM | 0.051 nM | IFWM3359 (antibody, V domains shown, VH IFWH624, VL IFWL1047; converted mAb; also called IFWB3094) VH: EVQLVQSGAEVKKPGESLKISCKGSGYSFTSYWIGWVRQMPGKGLEWMGIIDPSDSDTAYSPSFQGQVTISADKSISTAYLQWSSLKASDTAMYYCARHPGLNWAPDFDYWGQGTLVTVSS VL: DIQMTQSPSSLSASVGDRVTITCRASQSINGVLNWYQQKPGKAPKLLIYFASSLQSGVPSRFSGSGSGTDFTLTISSLQPEDFATYYCQQSHDFPLTFGQGTKVEIK
9 | 0.004 nM | 0.023 nM | 0.039 nM | 0.13 nM | 0.17 nM | 0.014 nM | 0.037 nM | IFWM3357 (antibody, V domains shown, VH IFWH624, VL IFWL1038; converted mAb; also called IFWB3092) VH: EVQLVQSGAEVKKPGESLKISCKGSGYSFTSYWIGWVRQMPGKGLEWMGIIDPSDSDTAYSPSFQGQVTISADKSISTAYLQWSSLKASDTAMYYCARHPGLNWAPDFDYWGQGTLVTVSS VL: DIQMTQSPSSLSASVGDRVTITCRASQSISEYLNWYQQKPGKAPKLLIYFASSLQSGVPSRFSGSGSGTDFTLTISSLQPEDFATYYCQQSHSLPITFGQGTKVEIK
10 | 0.06 nM | 0.121 nM | 0.152 nM | 0.287 nM | 0.267 nM | 0.09 nM | 0.087 nM | IFWM3352 (antibody, V domains shown, VH IFWH624, VL IFWL1013; converted mAb; also called IFWB3087) VH: EVQLVQSGAEVKKPGESLKISCKGSGYSFTSYWIGWVRQMPGKGLEWMGIIDPSDSDTAYSPSFQGQVTISADKSISTAYLQWSSLKASDTAMYYCARHPGLNWAPDFDYWGQGTLVTVSS VL: DIQMTQSPSSLSASVGDRVTITCRASQSINNFLNWYQQKPGKAPKLLIYFASSLQSGVPSRFSGSGSGTDFTLTISSLQPEDFATYYCQQSFNLPITFGQGTKVEIK
11 | 0.017 nM | 0.043 nM | 0.032 nM | 0.098 nM | 0.123 nM | 0.043 nM | 0.052 nM | IFWM3354 (antibody, V domains shown, VH IFWH624, VL IFWL1017; converted mAb; also called IFWB3089) VH: EVQLVQSGAEVKKPGESLKISCKGSGYSFTSYWIGWVRQMPGKGLEWMGIIDPSDSDTAYSPSFQGQVTISADKSISTAYLQWSSLKASDTAMYYCARHPGLNWAPDFDYWGQGTLVTVSS VL: DIQMTQSPSSLSASVGDRVTITCRASQSITSSLNWYQQKPGKAPKLLIYFASSLQSGVPSRFSGSGSGTDFTLTISSLQPEDFATYYCQQSFDLPLTFGQGTKVEIK
12 | 0.015 nM | 0.012 nM | 0.013 nM | 0.072 nM | 0.085 nM | 0.015 nM | 0.026 nM | IFWM3331 (antibody, V domains shown, VH IFWH591, VL IFWL1073; converted mAb; also called IFWB3066) VH: EVQLVQSGAEVKKPGESLKISCKGSGYSFTSYWIGWVRQMPGKGLEWMGIIDPSDSDTRYSPSFQGQVTISADKSISTAYLQWSSLKASDTAMYYCARHPGLNWAPDFDYWGQGTLVTVSS VL: DIQMTQSPSSLSASVGDRVTITCRASQSIDNSYLNWYQQKPGKAPKLLIYGASSLQSGVPSRFSGSGSGTDFTLTISSLQPEDFATYYCQQGWDWPLTFGQGTKVEIK
13 | 0.006 nM | 0.054 nM | 0.055 nM | 0.095 nM | 0.11 nM | 0.016 nM | 0.031 nM | IFWM3353 (antibody, V domains shown, VH IFWH624, VL IFWL1014; converted mAb; also called IFWB3088) VH: EVQLVQSGAEVKKPGESLKISCKGSGYSFTSYWIGWVRQMPGKGLEWMGIIDPSDSDTAYSPSFQGQVTISADKSISTAYLQWSSLKASDTAMYYCARHPGLNWAPDFDYWGQGTLVTVSS VL: DIQMTQSPSSLSASVGDRVTITCRASQSIDRALNWYQQKPGKAPKLLIYFASSLQSGVPSRFSGSGSGTDFTLTISSLQPEDFATYYCQQSFDFPLTFGQGTKVEIK
14 | 0.013 nM | 0.093 nM | 0.109 nM | 0.254 nM | 0.269 nM | 0.08 nM | 0.118 nM | IFWM3364 (antibody, V domains shown, VH IFWH624, VL IFWL1060; converted mAb; also called IFWB3099) VH: EVQLVQSGAEVKKPGESLKISCKGSGYSFTSYWIGWVRQMPGKGLEWMGIIDPSDSDTAYSPSFQGQVTISADKSISTAYLQWSSLKASDTAMYYCARHPGLNWAPDFDYWGQGTLVTVSS VL: DIQMTQSPSSLSASVGDRVTITCRASQSIRNSLNWYQQKPGKAPKLLIKWASSLQSGVPSRFSGSGSGTDFTLTISSLQPEDFATYYCQQLYDWPLTFGQGTKVEIK
15 | 0.004 nM | 0.048 nM | 0.053 nM | 0.14 nM | 0.113 nM | 0.015 nM | 0.033 nM | IFWM3351 (antibody, V domains shown, VH IFWH624, VL IFWL1010; converted mAb; also called IFWB3086) VH: EVQLVQSGAEVKKPGESLKISCKGSGYSFTSYWIGWVRQMPGKGLEWMGIIDPSDSDTAYSPSFQGQVTISADKSISTAYLQWSSLKASDTAMYYCARHPGLNWAPDFDYWGQGTLVTVSS VL: DIQMTQSPSSLSASVGDRVTITCRASQSIDGALNWYQQKPGKAPKLLIYFASSLQSGVPSRFSGSGSGTDFTLTISSLQPEDFATYYCQQSFDFPLTFGQGTKVEIK
